Results reported in patent US20230382948A1, “DELIVERY OF ENDOTHELIAL CELL-LADEN MICROGEL ELICITS ANGIOGENESIS IN SELF-ASSEMBLING ULTRASHORT PEPTIDE HYDROGELS” (KING ABDULLAH UNIVERSITY OF SCIENCE AND TECHNOLOGY, priority 2020, published 2023).

Experiments:
Assay type in all cases: physicochemical
[1] = Peptide gelation study (vial inversion method); conditions: for Time to form hydrogel: 4 mg/mL, room temperature, in the presence of PBS
Experimental: The preweighed (as per the required final concentration) peptide powder was dissolved in 0.9 mL of Milli-Q® water in a glass vial. The solution was vortexed for 5-10 s to obtain a clear and homogeneous solution. To this peptide solution, 0.1 mL of PBS buffer (10×, w/o Ca^2+ and Mg^2+) was added. To ensure a homogeneous distribution of buffer in the solution, the glass vial was further vortexed for 2-3 s. The glass vial was kept undisturbed on the bench, and hydrogel formation was observed using the vial inversion method, as shown in FIG. 9. The pH of the solutions of IVFK (SEQ ID NO. 1) and IVZK (SEQ ID NO. 2) was 5.57 and 5.48 at a 5 mg/mL concentration, respectively. After the addition of PBS, the pH changed to 7.7 and 7.6 for IVFK (SEQ ID NO. 1) and IVZK (SEQ ID NO. 2), respectively. The pH of the Milli-Q® water and phosphate buffer used was 6.7 and 7.4, respectively.

[2] = Rheological characterization of SUP bulk hydrogels
Experimental: The mechanical stiffness of the peptide hydrogels was analyzed using a TA Ares-G2 Rheometer equipped with parallel-plate geometries of 8 mm diameter at room temperature. The sample gap between the upper and the lower geometries was set at 1.8 mm. The hydrogels were prepared from 135 μL of peptide solution that was mixed with 15 μL of 10×PBS in an 8 mm i.d. poly(methyl methacrylate) (PMMA) casting ring and left for 1 day before measurement. The rings were kept inside Petri dishes at room temperature with water surrounding them and tightly sealed to avoid dehydration. To control the accuracy of the measurements, six replicates for each peptide hydrogel were prepared. The stiffness was analyzed through three successive tests, which were time sweep, frequency sweep, and amplitude sweep. Time sweep was first performed for 5 min with an angular frequency and a strain of 1 rad/s and 0.1%, respectively. A frequency sweep was subsequently performed on the sample for a range of angular frequency of 0.1-100 rad/s with the same strain of 0.1%. The tests were completed with the amplitude sweep by applying a gradual increase of strain […] at 1 rad/s angular frequency.

[3] = Transmission electron microscopy of nanofibers; conditions: TEM
Experimental: TEM imaging was performed using a FEI Tecnai G2 Spirit Twin instrument with a 120 kV emission gun. One drop of diluted peptide hydrogel in water was placed on a carbon-coated copper grid that had been treated with glow discharge plasma prior to being used. The drop was kept on the grid for 10 min before being blotted using filter paper. The grid was stained with 2% uranyl acetate for 30 s to get better contrast. The grid was then rinsed in water to remove uranyl excess and dried for at least 1 day before imaging. The average diameter of the nanofibers was measure using hnageJ and Origin software from 100 fibers.

[4] = Microgel stability under cell culture procedures; conditions: for Microgel size and shape stability: autoclaving, UV irradiation, trypsinization, rocking, 37 and 22° C.
Experimental: A 400 μL amount of microgels was diluted in 6 mL of DMEM, and aliquots of 1 mL were seeded in five 35 mm plastic Petri dishes and one 40 mm glass Petri dish. Each dish containing microgels was treated as follows: (1) Autoclaving at 121° C. for 20 min using the glass dish, (2) UV irradiation for 30 min, and (3) 0.125% trypsin-EDTA at 37° C. for 5 min. In addition, the remaining dishes containing microgels were treated for 16-18 days as follows: (4) 37° C., 95% humidity, and 5% CO2, (5) 37° C., 95% humidity, and 5% CO2 under rocker conditions at 30 rpm, and (6) 22° C. on a shelf. Microgel imaging was done before treatment and follow up every other day. FIG. 31 summarizes the experimental design.
Microgel imaging was done at each condition and time point using a CLSM Zeiss® 710 or 880 by tile scanning with 15% overlapping and online stitching to capture as many microgels as possible from the dish. The Feret diameter and roundness of each microgel was calculated using ImageJ software by manually drawing up to 59 microgel contours per condition. All statistical data analysis and microgel descriptor plotting were conducted in Origin software. To assess the effect of the treatments on the microgel diameter and roundness, a Kruskal—Wallis test with Posthoc test pairwise Mann—Whitney U tests was applied.

[5] = 22 C. at day 0, 2, 4, 10, 12, 14, 16, 18, the 5th table
[6] = 22 C. at day 0, 2, 4, 10, 12, 14, 16, the 4th table
[7] = 22 C., Autoclaving, UV and Trypsin, the 4th table
[8] = 22 C., Autoclaving, UV and Trypsin, the 5th table
[9] = 37 C. at day 0, 2, 4, 10, 12, 14, 16, 18, the 5th table
[10] = 37 C. at day 0, 2, 4, 10, 12, 14, 16, the 4th table
[11] = 37 C. at day 0, 2, 4, 16, 12, 14, 16, 18, the 5th table
[12] = 37 C. with rocking at day 0, 2, 4, 10, 12, 14, 16, 18, the 5th table
[13] = 37 C. with rocking at day 0, 2, 4, 10, 12, 14, 16, the 4th table
[14] = 37 C. with rocking at day 0, 2, 4, 10, 12, 14, 36, 18, the 5th table

Substance: Ac-Ile-Val-Cha-Lys-NH2 (IVXK; HELM PEPTIDE1{[ac].I.V.[Cha].K.[am]}$$$$V2.0; SMILES CC[C@H](C)[C@H](NC(C)=O)C(=O)N[C@H](C(=O)N[C@@H](CC1CCCCC1)C(=O)N[C@@H](CCCCN)C(N)=O)C(C)C) [IVZK, self-assembling ultrashort tetrapeptide, Z = cyclohexylalanine, forms hydrogels and microgels]
- Critical gelation concentration in bulky hydrogels [1]: 0.3 wt %
- Time to form hydrogel [1]: 10 min
- Mechanical stiffness of hydrogel, comparison ([2]; IVZK versus IVFK hydrogels, FIG. 15): higher stiffness
- Single-filament thickness [3]: around 3 nm
- Microgel size and shape stability [4]: maintain their size and shape

Substance: Ac-Ile-Val-Phe-Lys-NH2 (Ac-IVFK-NH2) [self-assembling ultrashort tetrapeptide, forms hydrogels and microgels]
- Critical gelation concentration in bulky hydrogels [1]: 0.4 wt %
- Time to form hydrogel [1]: 10 min
- Linear viscoelastic (LVE) region of hydrogel, comparison ([2]; amplitude sweep, IVFK versus IVZK, FIGS. 18 and 19): wider
- Single-filament thickness [3]: around 3 nm
- X2 (Kruskal-Wallis), microgel diameter [4, 5]: 10.76
- X2 (Kruskal-Wallis), microgel roundness [4, 5]: 7.72
- p (Kruskal-Wallis), microgel diameter [4, 5]: >0.05
- p (Kruskal-Wallis), microgel roundness [4, 5]: >0.05
- X2 (Kruskal-Wallis), microgel diameter [4, 6]: 1.69
- X2 (Kruskal-Wallis), microgel roundness [4, 6]: 1.65
- p (Kruskal-Wallis), microgel diameter [4, 6]: >0.05
- p (Kruskal-Wallis), microgel roundness [4, 6]: >0.05
- X2 (Kruskal-Wallis), microgel diameter [4, 7]: 3.99
- X2 (Kruskal-Wallis), microgel roundness [4, 7]: 6.48
- p (Kruskal-Wallis), microgel diameter [4, 7]: >0.05
- p (Kruskal-Wallis), microgel roundness [4, 7]: >0.05
- X2 (Kruskal-Wallis), microgel diameter [4, 8]: 5.61
- X2 (Kruskal-Wallis), microgel roundness [4, 8]: 1.82
- p (Kruskal-Wallis), microgel diameter [4, 8]: >0.05
- p (Kruskal-Wallis), microgel roundness [4, 8]: >0.05
- X2 (Kruskal-Wallis), microgel roundness [4, 9]: 12.93
- p (Kruskal-Wallis), microgel roundness [4, 9]: >0.05
- X2 (Kruskal-Wallis), microgel diameter [4, 10]: 1.28
- X2 (Kruskal-Wallis), microgel roundness [4, 10]: 7.52
- p (Kruskal-Wallis), microgel diameter [4, 10]: >0.05
- p (Kruskal-Wallis), microgel roundness [4, 10]: >0.05
- X2 (Kruskal-Wallis), microgel diameter [4, 11]: 13.16
- p (Kruskal-Wallis), microgel diameter [4, 11]: >0.05
- p (Kruskal-Wallis), microgel diameter ([4]; 37 C. with mocking at day 0, 2, 4, 10, 12, 14, 16, the 4th table): >0.05
- X2 (Kruskal-Wallis), microgel diameter [4, 12]: 10.89
- p (Kruskal-Wallis), microgel diameter [4, 12]: >0.05
- X2 (Kruskal-Wallis), microgel diameter [4, 13]: 5.81
- X2 (Kruskal-Wallis), microgel roundness [4, 13]: 3.62
- p (Kruskal-Wallis), microgel roundness [4, 13]: >0.05
- X2 (Kruskal-Wallis), microgel roundness [4, 14]: 4.28
- p (Kruskal-Wallis), microgel roundness [4, 14]: >0.05
- Microgel size and shape stability [4]: maintain their size and shape
